Data reported in patent EP0672136B1, “POLYPEPTIDES, DERIVED FROM ENDONEXIN 2, HAVING HEPATITIS B VIRUS RECEPTOR ACTIVITY AND THEIR USE IN DIAGNOSTIC AND PHARMACEUTICAL COMPOSITIONS” (priority 1992, dated 1994).

Target: T1, major HBsAg (Hepatitis B virus genotype A2 subtype adw2, UniProt P03141)
T1 construct: purchased Merck Sharp and Dohme Laboratories (gift of Dr. W. J. Miller, not bought); host or cells: yeast
Assay: Binding of radiolabeled endonexin II to immobilized major HBsAg in the presence of endonexin II peptide fractions (F-peak inhibition assay)
Set-up: species or system HBV
Details: fractions of acid-hydrolysed human liver endonexin-II; triplicate; Figure 23A
Description: Purified endonexin-II was treated according to the method as described in example 3. (Hydrolysis in 3% formic acid at 112°C for 4h). After treatment with formic acid, the protein digest was separated by reversed phase HPLC on a Vydac C-4 column (2.1 x 250 mm, Hesperia, CA, USA) as described in example 3. Peptide peaks were registered on a chart recorder and collected manually.
Binding experiments were performed according to the method as described in example 1 and 5. However, binding of radiolabeled endonexin-II to immobilized major HBsAg was carried out in the presence of individual peak fractions of unlabeled digested human liver endonexin-II (see above). The experiment was performed in triplicate. […] Therefore, these peptide was considered as one of the important major HBsAg-binding epitopes on endonexin-II. By sequencing an identical peak fraction in a parallel experiment, peptides corresponding to peaks F and S were determined as amino acids 266 to 280 (peak F, DHTLIRVMVSRSEID) and amino acids 92-138 (peak S): […]) of human endonexin II (numbering according to Kaplan et al., 1988).

T1 sequence (P03141 175-400): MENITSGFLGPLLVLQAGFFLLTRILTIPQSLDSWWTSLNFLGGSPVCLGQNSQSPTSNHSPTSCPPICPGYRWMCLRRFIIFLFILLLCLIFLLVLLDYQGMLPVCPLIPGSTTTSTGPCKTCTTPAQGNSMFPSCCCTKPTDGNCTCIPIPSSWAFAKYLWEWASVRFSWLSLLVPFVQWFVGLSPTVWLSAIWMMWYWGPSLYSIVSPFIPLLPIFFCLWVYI

Sequence: DEEKFITIFGTRSVSHLRKVFDKYMTISGFQIEETI [peak L, region encompassing amino acids 190 to 225 of human endonexin]
- inhibition of binding of radiolabeled endonexin-II to major HBsAg by HPLC peak fraction: slightly lower binding inhibition capacity
